Data as given in the supplement of paper PMC10567573.

B1: PCDHGA10 (parent)
chain: FHELQMQVTASDSGDPPLSSNVSL
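Note: lentivirally expressed fusions sorted by FACS into six bins by GFP to DsRed ratio, PSI derived from sequencing read proportions per bin multiplied by bin number.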

Variants of: B1
Experiment: protein stability index of a GFP-peptide fusion (GPS, HEK-293T) (PSI 1-6); higher = more stable
Conditions: c terminus: a fixed tail appended
Work on FHELQMQVTASDSGFPPLSSNVSL [D15F] yielded a protein stability index of 1.4.
FHELQMQVTASDSGGPPLSSNVSL [D15G] showed a protein stability index of 1.97.
For FHELQMQVTASDSGHPPLSSNVSL [D15H], the protein stability index was 1.88.
FHELQMQVTASDSGIPPLSSNVSL [D15I] showed a protein stability index of 1.93.
For FHELQMQVTASDSGKPPLSSNVSL [D15K], the protein stability index was 1.85.
Work on FHELQMQVTASDSGLPPLSSNVSL [D15L] yielded a protein stability index of 1.64.
Variant FHELQMQVTASDSGMPPLSSNVSL [D15M] has a protein stability index of 1.91.
FHELQMQVTASDSGNPPLSSNVSL [D15N] showed a protein stability index of 2.48.
FHELQMQVTASDSGPPPLSSNVSL [D15P] showed a protein stability index of 1.95.
FHELQMQVTASDSGQPPLSSNVSL [D15Q] showed a protein stability index of 2.04.
Work on FHELQMQVTASDSGRPPLSSNVSL [D15R] yielded a protein stability index of 2.18.
Variant FHELQMQVTASDSGSPPLSSNVSL [D15S] has a protein stability index of 1.67.
For FHELQMQVTASDSGTPPLSSNVSL [D15T], the protein stability index was 1.8.
Work on FHELQMQVTASDSGVPPLSSNVSL [D15V] yielded a protein stability index of 1.92.
With FHELQMQVTASDSGWPPLSSNVSL [D15W] the protein stability index was 3.09.
With FHELQMQVTASDSGYPPLSSNVSL [D15Y] the protein stability index was 1.42.
FHELQMQVTASDSGDAPLSSNVSL [P16A] showed a protein stability index of 1.74.
With FHELQMQVTASDSGDCPLSSNVSL [P16C] the protein stability index was 1.85.
FHELQMQVTASDSGDDPLSSNVSL [P16D] showed a protein stability index of 2.49.
Work on FHELQMQVTASDSGDEPLSSNVSL [P16E] yielded a protein stability index of 2.54.
FHELQMQVTASDSGDFPLSSNVSL [P16F] showed a protein stability index of 1.6.
Variant FHELQMQVTASDSGDGPLSSNVSL [P16G] has a protein stability index of 2.33.
FHELQMQVTASDSGDHPLSSNVSL [P16H] showed a protein stability index of 2.1.
FHELQMQVTASDSGDIPLSSNVSL [P16I] showed a protein stability index of 1.7.
Work on FHELQMQVTASDSGDKPLSSNVSL [P16K] yielded a protein stability index of 2.36.
In the case of FHELQMQVTASDSGDLPLSSNVSL [P16L], the protein stability index is reported as 1.57.
Variant FHELQMQVTASDSGDMPLSSNVSL [P16M] has a protein stability index of 2.14.
For FHELQMQVTASDSGDNPLSSNVSL [P16N], the protein stability index was 2.23.
Variant FHELQMQVTASDSGDQPLSSNVSL [P16Q] has a protein stability index of 2.08.
Work on FHELQMQVTASDSGDRPLSSNVSL [P16R] yielded a protein stability index of 2.19.
Work on FHELQMQVTASDSGDSPLSSNVSL [P16S] yielded a protein stability index of 2.04.
FHELQMQVTASDSGDTPLSSNVSL [P16T] showed a protein stability index of 1.99.
In the case of FHELQMQVTASDSGDVPLSSNVSL [P16V], the protein stability index is reported as 2.21.
Work on FHELQMQVTASDSGDWPLSSNVSL [P16W] yielded a protein stability index of 1.69.
FHELQMQVTASDSGDYPLSSNVSL [P16Y] showed a protein stability index of 1.59.
With FHELQMQVTASDSGDPALSSNVSL [P17A] the protein stability index was 2.29.
For FHELQMQVTASDSGDPCLSSNVSL [P17C], the protein stability index was 1.56.
In the case of FHELQMQVTASDSGDPDLSSNVSL [P17D], the protein stability index is reported as 2.28.
With FHELQMQVTASDSGDPELSSNVSL [P17E] the protein stability index was 2.28.
FHELQMQVTASDSGDPFLSSNVSL [P17F] showed a protein stability index of 1.97.
Work on FHELQMQVTASDSGDPGLSSNVSL [P17G] yielded a protein stability index of 2.14.
Work on FHELQMQVTASDSGDPHLSSNVSL [P17H] yielded a protein stability index of 1.85.
FHELQMQVTASDSGDPILSSNVSL [P17I] showed a protein stability index of 2.65.
In the case of FHELQMQVTASDSGDPKLSSNVSL [P17K], the protein stability index is reported as 2.43.
FHELQMQVTASDSGDPLLSSNVSL [P17L] gave a protein stability index of 1.16.
For FHELQMQVTASDSGDPMLSSNVSL [P17M], the protein stability index was 2.38.
FHELQMQVTASDSGDPNLSSNVSL [P17N] showed a protein stability index of 2.12.
Work on FHELQMQVTASDSGDPQLSSNVSL [P17Q] yielded a protein stability index of 1.93.
FHELQMQVTASDSGDPRLSSNVSL [P17R] showed a protein stability index of 1.79.
In the case of FHELQMQVTASDSGDPSLSSNVSL [P17S], the protein stability index is reported as 2.13.
FHELQMQVTASDSGDPTLSSNVSL [P17T] gave a protein stability index of 1.93.
FHELQMQVTASDSGDPVLSSNVSL [P17V] gave a protein stability index of 1.78.
FHELQMQVTASDSGDPWLSSNVSL [P17W] gave a protein stability index of 1.48.
FHELQMQVTASDSGDPYLSSNVSL [P17Y] showed a protein stability index of 1.52.
With FHELQMQVTASDSGDPPASSNVSL [L18A] the protein stability index was 2.5.
With FHELQMQVTASDSGDPPCSSNVSL [L18C] the protein stability index was 2.39.
For FHELQMQVTASDSGDPPDSSNVSL [L18D], the protein stability index was 3.51.
Variant FHELQMQVTASDSGDPPESSNVSL [L18E] has a protein stability index of 2.53.
For FHELQMQVTASDSGDPPFSSNVSL [L18F], the protein stability index was 2.56.
Variant FHELQMQVTASDSGDPPGSSNVSL [L18G] has a protein stability index of 3.05.
FHELQMQVTASDSGDPPHSSNVSL [L18H] gave a protein stability index of 3.04.
Variant FHELQMQVTASDSGDPPISSNVSL [L18I] has a protein stability index of 2.33.
Work on FHELQMQVTASDSGDPPKSSNVSL [L18K] yielded a protein stability index of 2.31.
FHELQMQVTASDSGDPPMSSNVSL [L18M] gave a protein stability index of 2.31.
FHELQMQVTASDSGDPPNSSNVSL [L18N] showed a protein stability index of 2.34.
FHELQMQVTASDSGDPPPSSNVSL [L18P] showed a protein stability index of 3.02.
Work on FHELQMQVTASDSGDPPQSSNVSL [L18Q] yielded a protein stability index of 3.
With FHELQMQVTASDSGDPPRSSNVSL [L18R] the protein stability index was 2.42.
FHELQMQVTASDSGDPPSSSNVSL [L18S] gave a protein stability index of 3.29.
With FHELQMQVTASDSGDPPTSSNVSL [L18T] the protein stability index was 2.74.
For FHELQMQVTASDSGDPPVSSNVSL [L18V], the protein stability index was 2.43.
With FHELQMQVTASDSGDPPWSSNVSL [L18W] the protein stability index was 2.3.
In the case of FHELQMQVTASDSGDPPYSSNVSL [L18Y], the protein stability index is reported as 2.15.
With FHELQMQVTASDSGDPPLASNVSL [S19A] the protein stability index was 2.17.
Variant FHELQMQVTASDSGDPPLCSNVSL [S19C] has a protein stability index of 1.93.
With FHELQMQVTASDSGDPPLDSNVSL [S19D] the protein stability index was 3.07.
With FHELQMQVTASDSGDPPLESNVSL [S19E] the protein stability index was 3.04.
For FHELQMQVTASDSGDPPLFSNVSL [S19F], the protein stability index was 2.07.
FHELQMQVTASDSGDPPLGSNVSL [S19G] gave a protein stability index of 2.
Work on FHELQMQVTASDSGDPPLHSNVSL [S19H] yielded a protein stability index of 1.81.
Work on FHELQMQVTASDSGDPPLISNVSL [S19I] yielded a protein stability index of 1.66.
FHELQMQVTASDSGDPPLKSNVSL [S19K] showed a protein stability index of 2.11.
Work on FHELQMQVTASDSGDPPLLSNVSL [S19L] yielded a protein stability index of 1.85.
FHELQMQVTASDSGDPPLMSNVSL [S19M] showed a protein stability index of 2.36.
Variant FHELQMQVTASDSGDPPLNSNVSL [S19N] has a protein stability index of 2.39.
FHELQMQVTASDSGDPPLPSNVSL [S19P] gave a protein stability index of 2.2.
For FHELQMQVTASDSGDPPLQSNVSL [S19Q], the protein stability index was 2.36.
For FHELQMQVTASDSGDPPLRSNVSL [S19R], the protein stability index was 2.02.
FHELQMQVTASDSGDPPLTSNVSL [S19T] gave a protein stability index of 2.02.
FHELQMQVTASDSGDPPLVSNVSL [S19V] gave a protein stability index of 1.57.
Variant FHELQMQVTASDSGDPPLWSNVSL [S19W] has a protein stability index of 2.45.
Work on FHELQMQVTASDSGDPPLYSNVSL [S19Y] yielded a protein stability index of 1.94.
In the case of FHELQMQVTASDSGDPPLSANVSL [S20A], the protein stability index is reported as 1.82.
Work on FHELQMQVTASDSGDPPLSCNVSL [S20C] yielded a protein stability index of 1.62.
